Experimental data as given in US20250066503A1, “CELL INJURY INDUCING THERAPEUTIC DRUG FOR USE IN CANCER THERAPY” (CHUGAI SEIYAKU KABUSHIKI KAISHA, priority 2016, published 2025).

Target: T1, human GPC3 (human, UniProt P51654 25-563)
T1 construct: range 25-563; soluble analyte; also called soluble human GPC3; glypican 3
Experiment: SPR

T1 sequence (P51654 25-563 limits assumed): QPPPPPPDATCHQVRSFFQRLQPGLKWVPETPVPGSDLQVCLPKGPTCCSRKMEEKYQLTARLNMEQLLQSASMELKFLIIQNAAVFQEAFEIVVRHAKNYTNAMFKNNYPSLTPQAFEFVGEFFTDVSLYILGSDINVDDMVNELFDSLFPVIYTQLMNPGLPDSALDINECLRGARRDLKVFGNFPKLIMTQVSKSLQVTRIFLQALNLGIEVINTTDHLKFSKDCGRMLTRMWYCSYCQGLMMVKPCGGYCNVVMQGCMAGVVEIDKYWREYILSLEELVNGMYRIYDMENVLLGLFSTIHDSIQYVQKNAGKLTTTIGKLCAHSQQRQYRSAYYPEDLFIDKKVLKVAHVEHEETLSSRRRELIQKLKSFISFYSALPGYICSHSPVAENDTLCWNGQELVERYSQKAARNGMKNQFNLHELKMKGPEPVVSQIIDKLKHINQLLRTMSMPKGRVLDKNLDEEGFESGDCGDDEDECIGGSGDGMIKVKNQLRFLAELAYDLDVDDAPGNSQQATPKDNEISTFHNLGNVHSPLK

| Binder | Kd [nM] |
| --- | --- |
| H0610-G1dh/none-Hi-Kn010G3/L0079-k0 (antibody, V domains shown, one-arm) VH: QVQLVQSGAEVKKPGASVKVSCKASGYTFTDYEMHWIRQPPGQGLEWIGAIDGKTPDTAYSQKFKGRVTLTADKSTSTAYMELSSLTSEDTAVYYCTRFYSYTYWGQGTLVTVSS VL: DIVMTQSPLSLPVTPGEPASISCRSSQSLVHSNRNTYIHWYQQKPGQAPRLLIYKVSNRFSGVPDRFSGSGSGTDFTLKISRVEAEDVGVYYCGQGTQVPYTFGQGTKLEIK | 4.23 |
| H0610-G1dh/none-Hi-Kn010G3/L0113-k0 (antibody, V domains shown, one-arm) VH: QVQLVQSGAEVKKPGASVKVSCKASGYTFTDYEMHWIRQPPGQGLEWIGAIDGKTPDTAYSQKFKGRVTLTADKSTSTAYMELSSLTSEDTAVYYCTRFYSYTYWGQGTLVTVSS VL: DIVMTQSPLSLPVTPGEPASISCRSSQSLVHSNRNTYLHWYQQKPGQAPRLLIYKVSTRFSGVPDRFSGSGSGTDFTLKISRVEAEDVGVYYCGQGTQVPYTFGQGTKLEIK | 4.82 |
| H0610-G1dh/none-Hi-Kn010G3/L0106-k0 (antibody, V domains shown, one-arm) VH: QVQLVQSGAEVKKPGASVKVSCKASGYTFTDYEMHWIRQPPGQGLEWIGAIDGKTPDTAYSQKFKGRVTLTADKSTSTAYMELSSLTSEDTAVYYCTRFYSYTYWGQGTLVTVSS VL: DIVMTQSPLSLPVTPGEPASISCRSSQSLVHSNRNTYLHWYQQKPGQAPRLLIYKVSHRFSGVPDRFSGSGSGTDFTLKISRVEAEDVGVYYCGQGTQVPYTFGQGTKLEIK | 5.66 |
| H0610-G1dh/none-Hi-Kn010G3/L0089-k0 (antibody, V domains shown, one-arm) VH: QVQLVQSGAEVKKPGASVKVSCKASGYTFTDYEMHWIRQPPGQGLEWIGAIDGKTPDTAYSQKFKGRVTLTADKSTSTAYMELSSLTSEDTAVYYCTRFYSYTYWGQGTLVTVSS VL: DIVMTQSPLSLPVTPGEPASISCRSSQSLVHSNRNTYLLWYQQKPGQAPRLLIYKVSNRFSGVPDRFSGSGSGTDFTLKISRVEAEDVGVYYCGQGTQVPYTFGQGTKLEIK | 5.24 |
| H0610-G1dh/none-Hi-Kn010G3/L0093-k0 (antibody, V domains shown, one-arm) VH: QVQLVQSGAEVKKPGASVKVSCKASGYTFTDYEMHWIRQPPGQGLEWIGAIDGKTPDTAYSQKFKGRVTLTADKSTSTAYMELSSLTSEDTAVYYCTRFYSYTYWGQGTLVTVSS VL: DIVMTQSPLSLPVTPGEPASISCRSSQSLVHSNRNTYLQWYQQKPGQAPRLLIYKVSNRFSGVPDRFSGSGSGTDFTLKISRVEAEDVGVYYCGQGTQVPYTFGQGTKLEIK | 0.106 |
| H0610-G1dh/none-Hi-Kn010G3/L0104-k0 (antibody, V domains shown, one-arm) VH: QVQLVQSGAEVKKPGASVKVSCKASGYTFTDYEMHWIRQPPGQGLEWIGAIDGKTPDTAYSQKFKGRVTLTADKSTSTAYMELSSLTSEDTAVYYCTRFYSYTYWGQGTLVTVSS VL: DIVMTQSPLSLPVTPGEPASISCRSSQSLVHSNRNTYLHWYQQKPGQAPRLLIYKVSFRFSGVPDRFSGSGSGTDFTLKISRVEAEDVGVYYCGQGTQVPYTFGQGTKLEIK | 5.9 |
| H0610-G1dh/none-Hi-Kn010G3/L0085-k0 (antibody, V domains shown, one-arm) VH: QVQLVQSGAEVKKPGASVKVSCKASGYTFTDYEMHWIRQPPGQGLEWIGAIDGKTPDTAYSQKFKGRVTLTADKSTSTAYMELSSLTSEDTAVYYCTRFYSYTYWGQGTLVTVSS VL: DIVMTQSPLSLPVTPGEPASISCRSSQSLVHSNRNTYLEWYQQKPGQAPRLLIYKVSNRFSGVPDRFSGSGSGTDFTLKISRVEAEDVGVYYCGQGTQVPYTFGQGTKLEIK | 1.17 |
| H0610-G1dh/none-Hi-Kn010G3/L0107-k0 (antibody, V domains shown, one-arm) VH: QVQLVQSGAEVKKPGASVKVSCKASGYTFTDYEMHWIRQPPGQGLEWIGAIDGKTPDTAYSQKFKGRVTLTADKSTSTAYMELSSLTSEDTAVYYCTRFYSYTYWGQGTLVTVSS VL: DIVMTQSPLSLPVTPGEPASISCRSSQSLVHSNRNTYLHWYQQKPGQAPRLLIYKVSIRFSGVPDRFSGSGSGTDFTLKISRVEAEDVGVYYCGQGTQVPYTFGQGTKLEIK | 4.38 |
| H0610-G1dh/none-Hi-Kn010G3/L0109-k0 (antibody, V domains shown, one-arm) VH: QVQLVQSGAEVKKPGASVKVSCKASGYTFTDYEMHWIRQPPGQGLEWIGAIDGKTPDTAYSQKFKGRVTLTADKSTSTAYMELSSLTSEDTAVYYCTRFYSYTYWGQGTLVTVSS VL: DIVMTQSPLSLPVTPGEPASISCRSSQSLVHSNRNTYLHWYQQKPGQAPRLLIYKVSMRFSGVPDRFSGSGSGTDFTLKISRVEAEDVGVYYCGQGTQVPYTFGQGTKLEIK | 5.7 |
| H0610-G1dh/none-Hi-Kn010G3/L0082-k0 (antibody, V domains shown, one-arm) VH: QVQLVQSGAEVKKPGASVKVSCKASGYTFTDYEMHWIRQPPGQGLEWIGAIDGKTPDTAYSQKFKGRVTLTADKSTSTAYMELSSLTSEDTAVYYCTRFYSYTYWGQGTLVTVSS VL: DIVMTQSPLSLPVTPGEPASISCRSSQSLVHSNRNTYVHWYQQKPGQAPRLLIYKVSNRFSGVPDRFSGSGSGTDFTLKISRVEAEDVGVYYCGQGTQVPYTFGQGTKLEIK | 3.43 |
| H0610-G1dh/none-Hi-Kn010G3/L0091-k0 (antibody, V domains shown, one-arm) VH: QVQLVQSGAEVKKPGASVKVSCKASGYTFTDYEMHWIRQPPGQGLEWIGAIDGKTPDTAYSQKFKGRVTLTADKSTSTAYMELSSLTSEDTAVYYCTRFYSYTYWGQGTLVTVSS VL: DIVMTQSPLSLPVTPGEPASISCRSSQSLVHSNRNTYLNWYQQKPGQAPRLLIYKVSNRFSGVPDRFSGSGSGTDFTLKISRVEAEDVGVYYCGQGTQVPYTFGQGTKLEIK | 5.43 |
| H0610-G1dh/none-Hi-Kn010G3/L0090-k0 (antibody, V domains shown, one-arm) VH: QVQLVQSGAEVKKPGASVKVSCKASGYTFTDYEMHWIRQPPGQGLEWIGAIDGKTPDTAYSQKFKGRVTLTADKSTSTAYMELSSLTSEDTAVYYCTRFYSYTYWGQGTLVTVSS VL: DIVMTQSPLSLPVTPGEPASISCRSSQSLVHSNRNTYLMWYQQKPGQAPRLLIYKVSNRFSGVPDRFSGSGSGTDFTLKISRVEAEDVGVYYCGQGTQVPYTFGQGTKLEIK | 1.12 |

Other lines, results leading:

| Kd [nM] | Binder |
| --- | --- |
| 3.12 | H0610-G1dh/none-Hi-Kn010G3/L0127-k0 (antibody, V domains shown, one-arm) VH: QVQLVQSGAEVKKPGASVKVSCKASGYTFTDYEMHWIRQPPGQGLEWIGAIDGKTPDTAYSQKFKGRVTLTADKSTSTAYMELSSLTSEDTAVYYCTRFYSYTYWGQGTLVTVSS VL: DIVMTQSPLSLPVTPGEPASISCRSSQSLVHSNRNTYLHWYQQKPGQAPRLLIYKVSNRPSGVPDRFSGSGSGTDFTLKISRVEAEDVGVYYCGQGTQVPYTFGQGTKLEIK |
| 1.71 | H0610-G1dh/none-Hi-Kn010G3/L0125-k0 (antibody, V domains shown, one-arm) VH: QVQLVQSGAEVKKPGASVKVSCKASGYTFTDYEMHWIRQPPGQGLEWIGAIDGKTPDTAYSQKFKGRVTLTADKSTSTAYMELSSLTSEDTAVYYCTRFYSYTYWGQGTLVTVSS VL: DIVMTQSPLSLPVTPGEPASISCRSSQSLVHSNRNTYLHWYQQKPGQAPRLLIYKVSNRMSGVPDRFSGSGSGTDFTLKISRVEAEDVGVYYCGQGTQVPYTFGQGTKLEIK |
| 2.42 | H0610-G1dh/none-Hi-Kn010G3/L0122-k0 (antibody, V domains shown, one-arm) VH: QVQLVQSGAEVKKPGASVKVSCKASGYTFTDYEMHWIRQPPGQGLEWIGAIDGKTPDTAYSQKFKGRVTLTADKSTSTAYMELSSLTSEDTAVYYCTRFYSYTYWGQGTLVTVSS VL: DIVMTQSPLSLPVTPGEPASISCRSSQSLVHSNRNTYLHWYQQKPGQAPRLLIYKVSNRISGVPDRFSGSGSGTDFTLKISRVEAEDVGVYYCGQGTQVPYTFGQGTKLEIK |
| 4.34 | H0610-G1dh/none-Hi-Kn010G3/L0115-k0 (antibody, V domains shown, one-arm) VH: QVQLVQSGAEVKKPGASVKVSCKASGYTFTDYEMHWIRQPPGQGLEWIGAIDGKTPDTAYSQKFKGRVTLTADKSTSTAYMELSSLTSEDTAVYYCTRFYSYTYWGQGTLVTVSS VL: DIVMTQSPLSLPVTPGEPASISCRSSQSLVHSNRNTYLHWYQQKPGQAPRLLIYKVSWRFSGVPDRFSGSGSGTDFTLKISRVEAEDVGVYYCGQGTQVPYTFGQGTKLEIK |
| 4.92 | H0610-G1dh/none-Hi-Kn010G3/L0117-k0 (antibody, V domains shown, one-arm) VH: QVQLVQSGAEVKKPGASVKVSCKASGYTFTDYEMHWIRQPPGQGLEWIGAIDGKTPDTAYSQKFKGRVTLTADKSTSTAYMELSSLTSEDTAVYYCTRFYSYTYWGQGTLVTVSS VL: DIVMTQSPLSLPVTPGEPASISCRSSQSLVHSNRNTYLHWYQQKPGQAPRLLIYKVSNRASGVPDRFSGSGSGTDFTLKISRVEAEDVGVYYCGQGTQVPYTFGQGTKLEIK |
| 4.54 | H0610-G1dh/none-Hi-Kn010G3/L0120-k0 (antibody, V domains shown, one-arm) VH: QVQLVQSGAEVKKPGASVKVSCKASGYTFTDYEMHWIRQPPGQGLEWIGAIDGKTPDTAYSQKFKGRVTLTADKSTSTAYMELSSLTSEDTAVYYCTRFYSYTYWGQGTLVTVSS VL: DIVMTQSPLSLPVTPGEPASISCRSSQSLVHSNRNTYLHWYQQKPGQAPRLLIYKVSNRGSGVPDRFSGSGSGTDFTLKISRVEAEDVGVYYCGQGTQVPYTFGQGTKLEIK |
| 5.08 | H0610-G1dh/none-Hi-Kn010G3/L0123-k0 (antibody, V domains shown, one-arm) VH: QVQLVQSGAEVKKPGASVKVSCKASGYTFTDYEMHWIRQPPGQGLEWIGAIDGKTPDTAYSQKFKGRVTLTADKSTSTAYMELSSLTSEDTAVYYCTRFYSYTYWGQGTLVTVSS VL: DIVMTQSPLSLPVTPGEPASISCRSSQSLVHSNRNTYLHWYQQKPGQAPRLLIYKVSNRKSGVPDRFSGSGSGTDFTLKISRVEAEDVGVYYCGQGTQVPYTFGQGTKLEIK |
| 5.62 | H0610-G1dh/none-Hi-Kn010G3/L0126-k0 (antibody, V domains shown, one-arm) VH: QVQLVQSGAEVKKPGASVKVSCKASGYTFTDYEMHWIRQPPGQGLEWIGAIDGKTPDTAYSQKFKGRVTLTADKSTSTAYMELSSLTSEDTAVYYCTRFYSYTYWGQGTLVTVSS VL: DIVMTQSPLSLPVTPGEPASISCRSSQSLVHSNRNTYLHWYQQKPGQAPRLLIYKVSNRNSGVPDRFSGSGSGTDFTLKISRVEAEDVGVYYCGQGTQVPYTFGQGTKLEIK |
| 5.28 | H0610-G1dh/none-Hi-Kn010G3/L0129-k0 (antibody, V domains shown, one-arm) VH: QVQLVQSGAEVKKPGASVKVSCKASGYTFTDYEMHWIRQPPGQGLEWIGAIDGKTPDTAYSQKFKGRVTLTADKSTSTAYMELSSLTSEDTAVYYCTRFYSYTYWGQGTLVTVSS VL: DIVMTQSPLSLPVTPGEPASISCRSSQSLVHSNRNTYLHWYQQKPGQAPRLLIYKVSNRRSGVPDRFSGSGSGTDFTLKISRVEAEDVGVYYCGQGTQVPYTFGQGTKLEIK |
| 0.972 | H0610-G1dh/none-Hi-Kn010G3/L0124-k0 (antibody, V domains shown, one-arm) VH: QVQLVQSGAEVKKPGASVKVSCKASGYTFTDYEMHWIRQPPGQGLEWIGAIDGKTPDTAYSQKFKGRVTLTADKSTSTAYMELSSLTSEDTAVYYCTRFYSYTYWGQGTLVTVSS VL: DIVMTQSPLSLPVTPGEPASISCRSSQSLVHSNRNTYLHWYQQKPGQAPRLLIYKVSNRLSGVPDRFSGSGSGTDFTLKISRVEAEDVGVYYCGQGTQVPYTFGQGTKLEIK |
